The source of these data is patent publication US20120149881A1 (Genentech, published 2012).

Where “and” joins values, the source holds several entries; their conditions need not be identical. Identical values can stand only once.

The target in test [1] is T1, human IgE with the M1′ sequence (long form of membrane IgE) expressed on transduced BJAB or Daudi cells (human, UniProt P01854 116-546).
T1 construct: Full-length heavy and light chains of the U266 IgE B cell receptor, retrovirally expressed; also called IgE/M1′; IgE-M1′
T1 sequence (P01854 116-546 I515L limits assumed): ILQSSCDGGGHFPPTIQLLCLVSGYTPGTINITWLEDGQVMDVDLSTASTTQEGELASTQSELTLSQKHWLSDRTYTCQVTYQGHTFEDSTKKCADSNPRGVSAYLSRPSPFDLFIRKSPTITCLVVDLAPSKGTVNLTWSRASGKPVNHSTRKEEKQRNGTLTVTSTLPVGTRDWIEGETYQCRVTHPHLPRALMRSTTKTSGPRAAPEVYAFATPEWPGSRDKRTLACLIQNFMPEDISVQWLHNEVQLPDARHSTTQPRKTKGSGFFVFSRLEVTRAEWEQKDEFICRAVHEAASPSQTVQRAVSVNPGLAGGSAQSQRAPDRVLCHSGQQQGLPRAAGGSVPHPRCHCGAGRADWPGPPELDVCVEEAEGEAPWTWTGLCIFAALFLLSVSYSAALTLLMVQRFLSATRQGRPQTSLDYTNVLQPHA
Nature of the test: competitive ECL binding on BJAB-IgE/M1′ cells vs biotinylated 26A11 or 47H4, 1st IC50 column.

The target of test [2] is T1, human IgE with the M1′ sequence (long …). Nature of the test: Scatchard Human M1' (nM), column Measured; iodinated antibody on cells expressing human IgE/M1'. The procedure:
(§1) The BJAB or Daudi cells expressing various forms of IgE with or without M1′ (Human, Rhesus, Cyno) were prepared for binding in cold Binding buffer composed of base media, with 10 mM HEPES pH 7.4, and 2% FBS as well as 40 ug/ml human IgG. Cells are diluted to concentration of 1.7×10⁶ cells/ml, and kept on ice until they are added to the assay. The proteins/antibodies are iodinated with the Iodogen method. Various concentrations of cold protein are prepared in triplicate, using a 1:2 dilution starting with the saturation concentration and ending at a concentration of zero, with a total of 14 concentrations. Hot protein of a single concentration is added to all dilutions compete with the cold protein. Lastly the cells are added to the hot and cold protein mixture, 250,000 cells per sample were used. Assay is kept at 4° C. for 4 hours, shaking. Each sample is then collected and filtered on membrane, washed at least 3 times with binding buffer, allowed to dry and then counted for 1 minute using Perkin Elmer Wizard 1470 Auto Gamma Counter.

Test [3] has as its target T2, human IgE CH3-CH4-M1′/Fc fusion protein (human).
T2 construct: also called M1′ (immobilized)
Nature of the test: SPR Biacore 2000, IgG immobilized, M1′-Fc analyte.

Test [4] concerns the target T1, human IgE with the M1′ sequence (long …). Nature of the test: Scatchard Human M1' (nM), column Mean of exp. 1. The procedure: In addition to relative affinity determinations by antibody titration and FACs detection, we also determined affinities of selected anti-MP antibodies to BJAB cell lines expressing IgE long form using Scatchard analysis. BJAB-Long cells were prepared for binding in cold Binding buffer composed of base media, with 10 mM HEPES pH 7.4, and 2% FBS as well as 40 μg/ml human IgG. Cells were diluted to a concentration of 1.7×10⁶ cells/ml, and kept on ice until added to the assay. The antibodies were iodinated with Iodogen method. Various concentrations of unlabelled antibody were prepared in triplicate, using a 1:2 dilution starting with the saturation concentration and ending at a concentration of zero, with a total of 14 concentrations. […] Each sample was then collected and filtered on a membrane, washed at least 3 times with binding buffer, allowed to dry and then measured for 1 minute using a Perkin Elmer Wizard 1470 Auto Gamma Counter.
The BJAB or Daudi cells expressing various forms of IgE with or without M1′ (Human, Rhesus, Cyno) were prepared for binding in cold Binding buffer composed of base media, with 10 mM HEPES pH 7.4, and 2% FBS as well as 40 ug/ml human IgG. […] Each sample is then collected and filtered on membrane, washed at least 3 times with binding buffer, allowed to dry and then counted for 1 minute using Perkin Elmer Wizard 1470 Auto Gamma Counter.

Test [5] has as its target T3, M1′ peptide 7 (human).
T3 peptide: GQQQGLPRAAGGSVP
Nature of the test: ELISA on coated antigen, relative OD450/650. The method, then:
(§2) 15 peptides were generated spanning the sequence surrounding and including human M1′ (Clifford Quan) (FIG. 5A). Peptides were resuspended in either dH20 or 50% DMSO. […] 0.05% Tween-20, 10 ppm Proclin., 0.2% BgG, 0.25% Chaps, 5 mM EDTA, 0.35M NaCl]. […] Plates were then incubated for 2 hours at room temperature. Murine antibody plates were washed 3 times and then anti-mouse IgG1-Biotin (BD Biosciences (A85-1) #553441) was added (1:10,000, 100 μl per well) and incubated for 1 hour at RT. Following 3 washes, SA-HRP (BD Biosciences #554066) was added (1:20,000, 100 μl per well) and incubated for 1 hour. Human IgG1 antibody plates were washed as before and anti-hulgG.Fc-HRP (Jackson ImmunoResearch (#109-036-098)) was added (1:10,000, 100 μl per well) and incubated for 1 hour at RT. Once secondary incubations were complete, plates were washed 6 times and TMB substrate (BD OptEIA #555214) was added (100 μl per well). The substrate-HRP reaction was stopped with 1M H3PO4 after ˜4 minutes. Plates were then read at 450/650. Data was represented as relative OD (OD₄₅₀/CD650).

Test [6] concerns the target T4, M1′ peptide 8 (human).
T4 peptide: PRAAGGSVPHPRCH
Nature of the test: ELISA on coated antigen, relative OD450/650. The procedure:
as §2

In test [7] the target is T1, human IgE with the M1′ sequence (long …). Nature of the test: Scatchard Human M1' (nM), overall Mean of two experiments. The method, then:
as §1

Test [8] has the same target. Nature of the test: Scatchard analysis on cells expressing human IgE/M1′. The procedure:
as §1

Test [9] has as its target T2, human IgE CH3-CH4-M1′/Fc fusion protein. Nature of the test: SPR Biacore A100, M1′ immobilized.
The target of test [10] is T1, human IgE with the M1′ sequence (long …). Nature of the test: Scatchard, iodinated antibody on IgE/M1′ cells.
Test [11] has the same target. Nature of the test: Scatchard Human M1' (nM), column Mean of exp. 2. The method, then:
as §1

Test [12] has the same target. Nature of the test: number printed in the titration panel; FIG. 3M calls these numbers 'Scatchard Results' (BJAB-Long cells). The procedure:
In addition to relative affinity determinations by antibody titration and FACs detection, we also determined affinities of selected anti-MP antibodies to BJAB cell lines expressing IgE long form using Scatchard analysis. BJAB-Long cells were prepared for binding in cold Binding buffer composed of base media, with 10 mM HEPES pH 7.4, and 2% FBS as well as 40 μg/ml human IgG. Cells were diluted to a concentration of 1.7×10⁶ cells/ml, and kept on ice until added to the assay. The antibodies were iodinated with Iodogen method. Various concentrations of unlabelled antibody were prepared in triplicate, using a 1:2 dilution starting with the saturation concentration and ending at a concentration of zero, with a total of 14 concentrations. Iodinated antibody of a single concentration was added to all dilutions of the competitor unlabelled antibody. Lastly 250,000 BJAB-Long cells were added to each mixture of iodinated and unlabelled antibody. The samples were incubated at 4° C. for 4 hours, shaking. Each sample was then collected and filtered on a membrane, washed at least 3 times with binding buffer, allowed to dry and then measured for 1 minute using a Perkin Elmer Wizard 1470 Auto Gamma Counter.

Test [13] shares this target. Nature of the test: Scatchard Human M1' (nM), column Mean of exp. 3. The method, then: as §1
The target of test [14] is T5, rhesus IgE/M1′ expressed on transduced Daudi cells (human IgE/primate M1′ cassette, rhesus) (rhesus monkey).
T5 construct: The construct is described as a 'human IgE/primate M1′ cassette'; also called Rhesus M1′
T5 chain: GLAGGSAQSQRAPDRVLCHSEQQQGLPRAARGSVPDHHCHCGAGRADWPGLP
Nature of the test: Scatchard analysis on cells expressing rhesus IgE/M1′.

Test [15] has as its target T1, human IgE with the M1′ sequence (long …). Nature of the test: Scatchard Human M1' (nM), overall Mean of three experiments. The procedure:
as §1

Test [16] addresses T2, human IgE CH3-CH4-M1′/Fc fusion protein. Nature of the test: SPR Biacore 2000, M1′-Fc immobilized.
Test [17] concerns the target T1, human IgE with the M1′ sequence (long …). Nature of the test: competitive ECL binding on BJAB-IgE/M1′ cells vs biotinylated 26A11 or 47H4, 2nd IC50 column.
Test [18] addresses T6, cyno IgE/M1′ expressed on transduced Daudi cells (human IgE/primate M1′ cassette, cynomolgus) (cynomolgus monkey).
T6 construct: The construct is described as a 'human IgE/primate M1′ cassette'; also called Cyno M1′
T6 chain: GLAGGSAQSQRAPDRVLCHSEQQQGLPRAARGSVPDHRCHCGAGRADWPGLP
Nature of the test: Scatchard analysis on cells expressing cyno IgE/M1′.

Test [19] addresses T7, M1′ peptide 4 (human).
T7 peptide: SAQSQRAPDRVLCHS
Nature of the test: ELISA on coated antigen, relative OD450/650. The procedure:
as §2

T2 sequence (chain, as listed by the source limits assumed): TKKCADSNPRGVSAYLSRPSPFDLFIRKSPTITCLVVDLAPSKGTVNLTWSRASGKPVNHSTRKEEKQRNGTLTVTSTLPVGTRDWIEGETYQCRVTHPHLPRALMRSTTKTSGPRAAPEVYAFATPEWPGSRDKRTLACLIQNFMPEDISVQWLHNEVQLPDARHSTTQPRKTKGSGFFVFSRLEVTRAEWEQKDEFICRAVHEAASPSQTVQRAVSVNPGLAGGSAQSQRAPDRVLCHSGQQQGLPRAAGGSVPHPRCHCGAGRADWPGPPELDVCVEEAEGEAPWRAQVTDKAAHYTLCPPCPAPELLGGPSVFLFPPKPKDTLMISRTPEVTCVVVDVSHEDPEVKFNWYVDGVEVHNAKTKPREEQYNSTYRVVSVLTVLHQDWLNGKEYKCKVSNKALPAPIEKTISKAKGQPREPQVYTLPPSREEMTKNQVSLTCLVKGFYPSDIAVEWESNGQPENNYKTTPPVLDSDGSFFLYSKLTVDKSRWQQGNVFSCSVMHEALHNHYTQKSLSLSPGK

B1: murine anti-IgE/M1′ antibody 26A11 (antibody, V domains shown)
VH: EVQLQQSGPELVKPGASVKMSCKASGYTFTDYYMMWVKQSHGKSLEWIGDINPNNYDTSYNQKFKGKATLTVDKSSSTAYIQLNSLTSEDSAVYYCASKAYWGQGTLVTVSA
VL: DIQMTQTTSSLSASLGDRVTITCRSSQDISNSLNWYQQKPDGPVKLLIYSTSRLHSGVPSRFSGSGSGTDYSLTISNLEQEDLATYFCQQGHTLPWTFGGGTKVEIKR
notes: mIgG1 hybridoma antibody; also called mu26A11; 26A11 mIgG1
Turning to B1, in [1], the IC50 is 12 nM. Moreover, the Kd is 1.68 nM and 2.59 nM and 1.2 nM in [2]; 5.1 nM in [3]; 2.14 nM in [4]; 1.94 nM in test [7]; 2.3 nM in test [8]; 0.3 nM in test [9]. Moreover, the Kd came to 1.6 nM in test [10] and 1.75 nM in [11]. Moreover, the binding result in test [5] and in test [6] was “binds” each time.

B2: murine anti-IgE/M1′ antibody 47H4 (antibody, V domains shown)
VH: EVKLVESGGGLVQPGGSRKLSCAASGFTFSDYGMAWVRQAPGKGPEWVAFISDLAYTIYYADTVTGRFTISRENAKNTLYLEMSSLRSEDTALYYCARDNWDAMDYWGQGTSVTVSS
VL: DIVLTQTPLSLPVSLGDQASISCRSSQSLVHNNGNTYLHWYLQKPGQSPKLLIYKVSNRFSGVPDRFSGSGSGTDFTLKISRLEAEDLGVYFCSQNTLVPWTFGGGTKVEIKR
notes: mIgG1 hybridoma antibody; also called mu47H4; 47H4 mIgG1
For B2, the Kd in test [12] is 0.39 nM; in test [13], 0.39 nM; in test [14], 0.77 nM; in test [15], 0.57 nM; in test [16], 12 nM; in [3], 1.5 nM. The Kd in test [18] was 0.97 nM; in test [8], 0.79 nM; in test [9] it was 5.6 nM; in [10], 0.4 nM; in [11] it was 0.54 nM. The IC50 in test [1] stood at 62 nM; in test [17] it was 57 nM. Further, in test [19], the binding result is recorded as “binds”.
